This assay addresses human RET on cells (MCF7/SRE-Luc; HEK293/hGFRα3/hRET/SRE-Luc; HEK293/hGFRα1/hRET/SRE-Luc) (human), P07949. As to the kind of experiment: cell-based or functional assay.

B1: H4H7086N (antibody, human IgG4, V domains shown)
VH: QVQLVESGGGVVQPGRSLRLSCVVSGFTFSNYGMHWVRQGPGRGLEWLALIWYDGSDKYYAESVRGRFTISRDNSKNTVYLQMNSLRAEDTAMYYCTRDRIFDYWGQGTLVTVSS
VL: AIQMTQSPSSLSASVGDRVTITCRASQDIRNDLGWYQHNPGKAPNLLIYAASTLQIGVPSRFRGSGSGTDFTLTISSLQPEDFATYYCLQDFDYPLSFGGGTKVEIR
B1 displayed an Internalization (% H4H8087P), HEK293/hGFRa1/hRET/SRE-Luc cells, 37 C of 59%.

B2: H4H8087P (antibody, human IgG4, V domains shown)
VH: QVQLVESGGGVVQPGRSLRLSCAASGFSFSSYGMHWVRQAPGKGLEWVAVMWYDGSNEYYADSVKGRFIISRDNSKSTLYLEMNSLRAEDTALYYCAREDWDEGYYYGMDVWGQGTTVTVSS
VL: DIQMTQSPSSLFASVGDRVTITCRASQDIRYDLGWYQQKPGKAPKRLIYASSILESGVPSRFSGSGSGTEYTLTISTLQSEDFAIYYCLQHNSFPWTFGQGTKVEIK
Turning to B2, the 293/hGFRα3/hRET SRE-luc % Blocking was found to be 100%; the 293/hGFRα3/hRET/SRE-Luc IC50 was 0.25 nM; the Internalization (% H4H8087P), HEK293/hGFRa1/hRET/SRE-Luc cells, 37 C amounted to 100%; the MCF7/SRE-Luc % Activation worked out at 0%. The molecule also had an MCF7/SRE-Luc Avg % Blocking of 100% and an MCF7/SRE-luc Avg. IC50 of 0.25 nM.

B3: H4H8085P (antibody, human IgG4, V domains shown)
VH: QVQLVESGGGVVQPGRSLRLSCTASGFTFDNYGMHWVRQAPGKGLEWVAVISYDGSNTFYADSVKGRFTISRDNSKNALYLQMNSLRAEDTAVYYCAKDLEFDILIGYPFDSWGRGTLVTVSS
VL: DIQLTQSPSFLSASVGDRVTITCWASQDISRYLAWYQQKPGKAPNLLIYAASTLQSGVPSRFSGSGSGTEFTLTINSLQPEDFATYYCQQLFSYPRTFGQGTKVEIK
Molecule B3 displayed a 293/hGFRα3/hRET SRE-luc % Blocking of 72%, a 293/hGFRα3/hRET/SRE-Luc IC50 of 127 nM, an MCF7/SRE-Luc % Activation of 47% and an MCF7/SRE-Luc Avg % Blocking of 0%. The luciferase activity in MCF7/SRE-Luc, % of the levels observed with GDNF worked out at 50%.

The values above are taken from patent US20220185900A1.
